# Test results as given in publication PMC7841527.
# Tests used:
# [1] = target: FLAG-tagged HDAC4 p.Thr244Lys variant (human); assay: co-IP; HEK293 cells co-transfected with FLAG-HDAC4 (native or variant) and HA-14-3-3β; ~48 h post-transfection cleared extracts immunoprecipitated with anti-FLAG antibody; western blot with anti-HA; blots quantified with ImageJ relative to HDAC4 and 14-3-3β loading controls
# [2] = target: FLAG-tagged HDAC4 p.Glu247Gly variant (human); assay: as above
# Sequence of FLAG-tagged HDAC4 p.Glu247Gly variant (human) (P56524 whole entry E247G): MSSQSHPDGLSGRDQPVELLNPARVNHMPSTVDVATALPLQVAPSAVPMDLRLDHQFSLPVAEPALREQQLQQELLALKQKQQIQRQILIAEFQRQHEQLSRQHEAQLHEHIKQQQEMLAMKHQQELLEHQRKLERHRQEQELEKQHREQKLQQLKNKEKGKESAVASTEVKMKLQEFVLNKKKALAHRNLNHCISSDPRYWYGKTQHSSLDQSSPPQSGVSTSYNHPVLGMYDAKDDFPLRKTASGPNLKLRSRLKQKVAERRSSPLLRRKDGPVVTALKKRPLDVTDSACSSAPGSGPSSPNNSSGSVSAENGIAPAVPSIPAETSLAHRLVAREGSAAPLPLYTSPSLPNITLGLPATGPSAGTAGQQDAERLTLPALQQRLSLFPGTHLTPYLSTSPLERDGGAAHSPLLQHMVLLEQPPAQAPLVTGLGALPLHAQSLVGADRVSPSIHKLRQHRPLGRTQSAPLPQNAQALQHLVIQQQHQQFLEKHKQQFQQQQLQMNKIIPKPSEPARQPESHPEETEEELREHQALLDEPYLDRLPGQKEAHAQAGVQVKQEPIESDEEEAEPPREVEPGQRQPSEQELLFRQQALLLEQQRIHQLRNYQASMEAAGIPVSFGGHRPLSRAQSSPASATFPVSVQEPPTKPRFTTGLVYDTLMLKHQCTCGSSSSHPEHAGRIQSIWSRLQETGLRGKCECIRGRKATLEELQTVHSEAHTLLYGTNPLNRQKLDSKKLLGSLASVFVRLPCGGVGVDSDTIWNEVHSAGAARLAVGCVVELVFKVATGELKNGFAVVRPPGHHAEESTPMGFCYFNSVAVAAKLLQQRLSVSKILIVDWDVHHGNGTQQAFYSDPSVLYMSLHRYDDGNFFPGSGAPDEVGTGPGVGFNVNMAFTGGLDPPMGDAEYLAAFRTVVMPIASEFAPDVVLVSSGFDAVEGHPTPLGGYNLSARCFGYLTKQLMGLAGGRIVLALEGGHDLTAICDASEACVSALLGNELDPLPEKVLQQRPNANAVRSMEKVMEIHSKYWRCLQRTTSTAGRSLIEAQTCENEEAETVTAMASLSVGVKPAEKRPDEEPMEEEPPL
# Sequence of FLAG-tagged HDAC4 p.Thr244Lys variant (human) (P56524 whole entry T244K): as the sequence (P56524 whole entry E247G) above, with T244K, G247E counted along it
substance,measurement,setting,value
14-3-3β (hemagglutinin [HA]-tagged) (from UniProt P31946 1-246) (natural protein),fold reduction of binding compared to native HDAC4,[1],2 fold
same,fold reduction of binding compared to native HDAC4,[2],2 fold
